The values below are quoted from earlier work in publication PMC3433420.

Like-named read-outs stand apart in the source and are kept apart here.

Targets include PLCG2-NC (Homo sapiens) (UniProt P16885); BLK (Homo sapiens) (UniProt P51451); YES1 (Homo sapiens) (UniProt P07947); ABL1 (Homo sapiens) (UniProt P00519); SRC (Homo sapiens) (UniProt P12931); LYN (Homo sapiens) (UniProt P07948); FGR (Homo sapiens) (UniProt P09769); SHF (Homo sapiens) (UniProt Q7M4L6); SYK-C (Homo sapiens) (UniProt P43405); PIK3R1-C (Homo sapiens) (UniProt P27986); SHC1-PTB (Homo sapiens) (UniProt P29353); PIK3R3-C (Homo sapiens) (UniProt Q92569); SHB (Homo sapiens) (UniProt Q15464).

Holding throughout (conditions): cited from earlier work
Series [1] deals with RASA1-N (Homo sapiens) (UniProt P20936).
Series [2] addresses TENC1 (Homo sapiens) (UniProt Q63HR2).
Series [3] has as its target PIK3R2-NC (Homo sapiens) (UniProt O00459).
Series [4] addresses PIK3R3-N (Homo sapiens) (UniProt Q92569).
Series [5] has as its target SYK-NC (Homo sapiens) (UniProt P43405).
The target in series [6] is PIK3R1-NC (Homo sapiens) (UniProt P27986).
The target of series [7] is SYK-NC (Homo sapiens) (UniProt P43405). The source holds these as a separate data set.
For series [8], the target named is PIK3R3-N (Homo sapiens) (UniProt Q92569). This is another data set of the same source.
Series [9] deals with PIK3R3-NC (Homo sapiens) (UniProt Q92569).
Series [10] addresses PIK3R2-N (Homo sapiens) (UniProt O00459).
Series [11] concerns the target RASA1-N (Homo sapiens) (UniProt P20936). This is another data set of the same source.
In series [12] the target is TENC1 (Homo sapiens) (UniProt Q63HR2). The source holds these as a separate data set.
Series [13] deals with PIK3R3-NC (Homo sapiens) (UniProt Q92569). This is another data set of the same source.
Series [14] concerns the target GRB7 (Homo sapiens) (UniProt Q14451).
Series [15] deals with ITK (Homo sapiens) (UniProt Q08881).
Series [16] deals with PIK3R1-N (Homo sapiens) (UniProt P27986).
For series [17], the target named is PIK3R2-N (Homo sapiens) (UniProt O00459). This is another data set of the same source.
Series [18] concerns the target PIK3R2-NC (Homo sapiens) (UniProt O00459). This is another data set of the same source.
Series [19] addresses ABL2 (Homo sapiens) (UniProt P42684).
Series [20] addresses PIK3R1-NC (Homo sapiens) (UniProt P27986). This is another data set of the same source.
Series [21] has as its target PIK3R1-N (Homo sapiens) (UniProt P27986). The source holds these as a separate data set.
In series [22] the target is GRB7 (Homo sapiens) (UniProt Q14451). This is another data set of the same source.
In series [23] the target is PIK3R3-N (Homo sapiens) (UniProt Q92569). The source holds these as a separate data set.
The target of series [24] is ABL2 (Homo sapiens) (UniProt P42684). This is another data set of the same source.
Series [25] has as its target PIK3R1-NC (Homo sapiens) (UniProt P27986). This is another data set of the same source.
For series [26], the target named is PIK3R3-NC (Homo sapiens) (UniProt Q92569). The source holds these as a separate data set.
Series [27] concerns the target ITK (Homo sapiens) (UniProt Q08881). The source holds these as a separate data set.
Series [28] addresses PIK3R2-N (Homo sapiens) (UniProt O00459). This is another data set of the same source.
Series [29] concerns the target PIK3R3-N (Homo sapiens) (UniProt Q92569). The source holds these as a separate data set.
The target in series [30] is PIK3R3-NC (Homo sapiens) (UniProt Q92569). This is another data set of the same source.
The target of series [31] is PIK3R2-NC (Homo sapiens) (UniProt O00459). This is another data set of the same source.
Series [32] deals with PIK3R1-N (Homo sapiens) (UniProt P27986). The source holds these as a separate data set.
The target of series [33] is PIK3R1-NC (Homo sapiens) (UniProt P27986). This is another data set of the same source.
Series [34] addresses PIK3R2-N (Homo sapiens) (UniProt O00459). This is another data set of the same source.
In series [35] the target is ABL2 (Homo sapiens) (UniProt P42684). The source holds these as a separate data set.

Chain of PIK3R1-N (Homo sapiens) (P27986 328-723): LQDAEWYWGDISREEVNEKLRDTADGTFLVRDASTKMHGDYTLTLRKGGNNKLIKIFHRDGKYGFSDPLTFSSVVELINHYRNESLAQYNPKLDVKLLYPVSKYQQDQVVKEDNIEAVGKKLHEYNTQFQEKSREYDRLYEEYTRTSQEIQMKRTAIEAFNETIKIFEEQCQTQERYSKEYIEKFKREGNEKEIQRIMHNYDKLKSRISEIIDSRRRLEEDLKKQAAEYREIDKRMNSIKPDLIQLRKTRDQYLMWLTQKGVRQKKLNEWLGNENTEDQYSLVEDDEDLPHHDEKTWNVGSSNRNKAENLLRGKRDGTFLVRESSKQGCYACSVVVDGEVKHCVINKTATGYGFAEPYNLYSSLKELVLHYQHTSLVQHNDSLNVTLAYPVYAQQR
Chain of PIK3R1-NC (Homo sapiens) (P27986 328-723): as above
Chain of ABL2 (Homo sapiens) (P42684 168-268): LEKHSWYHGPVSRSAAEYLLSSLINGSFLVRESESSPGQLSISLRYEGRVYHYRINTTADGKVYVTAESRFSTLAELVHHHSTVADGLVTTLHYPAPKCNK
Chain of PIK3R2-N (Homo sapiens) (O00459 325-721): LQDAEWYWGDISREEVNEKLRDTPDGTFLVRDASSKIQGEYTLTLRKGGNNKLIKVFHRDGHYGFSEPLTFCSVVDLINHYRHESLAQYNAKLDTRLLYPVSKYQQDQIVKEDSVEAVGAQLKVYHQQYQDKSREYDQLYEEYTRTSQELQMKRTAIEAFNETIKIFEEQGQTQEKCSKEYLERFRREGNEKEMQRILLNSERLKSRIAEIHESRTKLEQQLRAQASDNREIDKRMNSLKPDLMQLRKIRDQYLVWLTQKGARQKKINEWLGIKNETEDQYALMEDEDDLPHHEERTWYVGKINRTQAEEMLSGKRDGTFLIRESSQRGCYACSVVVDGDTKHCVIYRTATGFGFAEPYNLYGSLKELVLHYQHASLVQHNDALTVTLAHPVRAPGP
Chain of PIK3R2-NC (Homo sapiens) (O00459 325-721): as above
Chain of GRB7 (Homo sapiens) (Q14451 426-532): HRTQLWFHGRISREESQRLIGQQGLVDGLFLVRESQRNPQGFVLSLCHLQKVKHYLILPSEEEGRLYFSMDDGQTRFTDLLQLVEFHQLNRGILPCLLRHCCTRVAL
Chain of ITK (Homo sapiens) (Q08881 234-343): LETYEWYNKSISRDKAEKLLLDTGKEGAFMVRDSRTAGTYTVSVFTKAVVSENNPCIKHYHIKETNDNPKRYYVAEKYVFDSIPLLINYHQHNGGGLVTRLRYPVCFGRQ
Chain of RASA1-N (Homo sapiens) (P20936 176-446): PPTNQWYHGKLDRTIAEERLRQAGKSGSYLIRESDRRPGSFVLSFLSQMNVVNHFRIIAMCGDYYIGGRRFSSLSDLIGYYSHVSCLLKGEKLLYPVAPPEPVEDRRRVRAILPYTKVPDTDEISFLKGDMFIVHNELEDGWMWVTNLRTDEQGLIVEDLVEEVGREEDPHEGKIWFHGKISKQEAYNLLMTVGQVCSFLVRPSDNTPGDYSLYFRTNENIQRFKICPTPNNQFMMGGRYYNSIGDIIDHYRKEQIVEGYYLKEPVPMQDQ
Chain of TENC1 (Homo sapiens) (Q63HR2 1135-1252): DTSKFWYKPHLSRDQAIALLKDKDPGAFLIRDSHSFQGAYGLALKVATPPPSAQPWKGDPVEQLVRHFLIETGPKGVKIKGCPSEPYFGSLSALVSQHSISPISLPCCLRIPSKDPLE
Chain of ABL1 (Homo sapiens) (P00519 122-222): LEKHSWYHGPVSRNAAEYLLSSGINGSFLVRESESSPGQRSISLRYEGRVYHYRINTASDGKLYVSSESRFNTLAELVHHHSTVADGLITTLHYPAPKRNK
Chain of LYN (Homo sapiens) (P07948 124-231): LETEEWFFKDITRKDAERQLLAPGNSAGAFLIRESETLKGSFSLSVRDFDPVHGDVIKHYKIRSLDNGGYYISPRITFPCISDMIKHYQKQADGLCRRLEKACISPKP
Chain of BLK (Homo sapiens) (P51451 119-225): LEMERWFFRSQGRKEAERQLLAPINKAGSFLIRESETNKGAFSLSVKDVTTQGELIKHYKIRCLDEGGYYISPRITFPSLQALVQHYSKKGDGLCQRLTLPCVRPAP
Chain of PIK3R1-C (Homo sapiens) (P27986 328-723): as the sequence (P27986 328-723) above
Chain of SHB (Homo sapiens) (Q15464 405-509): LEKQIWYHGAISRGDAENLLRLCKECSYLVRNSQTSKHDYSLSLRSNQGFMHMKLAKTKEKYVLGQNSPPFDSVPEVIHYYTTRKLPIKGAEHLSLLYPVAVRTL
Chain of SHC1-PTB (Homo sapiens) (P29353 483-583): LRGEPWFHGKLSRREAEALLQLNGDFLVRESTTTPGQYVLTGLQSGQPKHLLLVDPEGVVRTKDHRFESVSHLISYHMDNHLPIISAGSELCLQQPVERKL
Chain of YES1 (Homo sapiens) (P07947 153-260): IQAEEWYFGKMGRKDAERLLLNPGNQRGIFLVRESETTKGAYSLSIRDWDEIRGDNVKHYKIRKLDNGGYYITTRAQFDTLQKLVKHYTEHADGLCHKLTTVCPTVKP
Chain of PLCG2-NC (Homo sapiens) (P16885 527-740): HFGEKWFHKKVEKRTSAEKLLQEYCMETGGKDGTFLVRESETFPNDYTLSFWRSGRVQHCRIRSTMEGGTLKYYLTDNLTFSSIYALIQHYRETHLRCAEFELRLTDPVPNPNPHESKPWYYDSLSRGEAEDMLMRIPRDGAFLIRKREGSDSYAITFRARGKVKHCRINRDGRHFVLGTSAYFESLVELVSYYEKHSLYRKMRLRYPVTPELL
Chain of SHF (Homo sapiens) (Q7M4L6 318-423): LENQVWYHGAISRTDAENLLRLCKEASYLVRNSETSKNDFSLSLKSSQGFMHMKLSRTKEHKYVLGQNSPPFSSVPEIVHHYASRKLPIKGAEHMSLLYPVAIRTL

…pYEYMNRRR: the apparent Kd (screen) with RASA1-N (Homo sapiens) [1] is 516 nM; with TENC1 (Homo sapiens) [2], 1800 nM; with PIK3R2-NC (Homo sapiens) [3], 257 nM; with PLCG2-NC (Homo sapiens), 614 nM; in the series with PIK3R3-N (Homo sapiens) [4], 201 nM; in the series with SYK-NC (Homo sapiens) [5], 1260 nM. The apparent Kd (screen) in the series with BLK (Homo sapiens) was 68 nM; with YES1 (Homo sapiens) it was 125 nM; in the series with PIK3R1-NC (Homo sapiens) [6], 499 nM; in the series with SYK-NC (Homo sapiens) [7], 894 nM; in the series with ABL1 (Homo sapiens) it was 1420 nM; in the series with PIK3R3-N (Homo sapiens) [8] it was 281 nM. The apparent Kd (screen) with PIK3R3-NC (Homo sapiens) [9] is 499 nM; in the series with PIK3R2-N (Homo sapiens) [10] it was 239 nM; with RASA1-N (Homo sapiens) [11] it was 929 nM; in the series with TENC1 (Homo sapiens) [12], 1630 nM; with PIK3R3-NC (Homo sapiens) [13] it was 256 nM; in the series with SRC (Homo sapiens), 866 nM. Also, the apparent Kd (screen) is 99 nM with GRB7 (Homo sapiens) [14]; 155 nM with ITK (Homo sapiens) [15]; 1070 nM in the series with LYN (Homo sapiens); 674 nM with PIK3R1-N (Homo sapiens) [16]; 143 nM with PIK3R2-N (Homo sapiens) [17]; 448 nM with PIK3R2-NC (Homo sapiens) [18]. The apparent Kd (screen) in the series with ABL2 (Homo sapiens) [19] was 1110 nM; with FGR (Homo sapiens), 709 nM; in the series with PIK3R1-NC (Homo sapiens) [20], 254 nM; with PIK3R1-N (Homo sapiens) [21], 347 nM; with GRB7 (Homo sapiens) [22] it was 125 nM.
…pYMPMNQGN: the apparent Kd (screen) in the series with PIK3R3-N (Homo sapiens) [23] is 1320 nM; with SHF (Homo sapiens), 1230 nM; with SYK-C (Homo sapiens), 1180 nM; with ABL2 (Homo sapiens) [24] it was 331 nM; with PIK3R1-NC (Homo sapiens) [25], 920 nM; with PIK3R3-NC (Homo sapiens) [26], 50 nM. The apparent Kd (screen) was 1670 nM with ITK (Homo sapiens) [27]; 999 nM with PIK3R1-C (Homo sapiens); 893 nM with PIK3R2-N (Homo sapiens) [28]; 999 nM with PIK3R3-N (Homo sapiens) [29]; 2000 nM with SHC1-PTB (Homo sapiens); 492 nM with PIK3R3-NC (Homo sapiens) [30]. Besides, the apparent Kd (screen) is 109 nM with PIK3R3-C (Homo sapiens); 88 nM with PIK3R2-NC (Homo sapiens) [31]; 566 nM in the series with PIK3R1-N (Homo sapiens) [32]; 105 nM in the series with PIK3R1-NC (Homo sapiens) [33]; 999 nM in the series with PIK3R2-N (Homo sapiens) [34]; 167 nM in the series with ABL2 (Homo sapiens) [35]. The apparent Kd (screen) in the series with SHB (Homo sapiens) was 1370 nM.
